Assay results as given in PMC3338918.

Legend:
[1] = biological target: human VEGFR1-hFc (human) (UniProt P17948)
[2] = biological target: VEGF Trap (aflibercept) (human); assay: KinExA solution equilibrium assay; KinExA 3000, room temperature (25°C); VEGF Trap (1–50 pM) equilibrated 10–96 h with varying ligand; unbound inhibitor captured on VEGF-A165-coupled Azlactone beads and detected with Cy5 anti-human IgG; one-site homogeneous binding model
[3] = biological target: VEGF Trap (aflibercept) (human); assay: SPR; Biacore 3000, CM5 chip, 25°C, HBS-T (10 mM Hepes, 150 mM NaCl, 3.4 mM EDTA, 0.05% polysorbate 20, pH 7.4); VEGF Trap or receptor-Fc captured at low density on amine-coupled Protein A, ligands injected (1.0–0.062 nM VEGF-A, 2.5–0.156 nM VEGF-B(10-108), 5.0–0.078 nM PlGF); kd of VEGF-A ligands by the 'fixed kd' procedure on a Biacore 2000 (~2–3 h); KD = kd/ka
[4] = biological target: human VEGFR1-hFc (human) (UniProt P17948); assay: as above
[5] = biological target: human VEGFR2-hFc (human) (UniProt P35968); assay: as above
Sequence of human VEGFR2-hFc (human) (P35968 20-764): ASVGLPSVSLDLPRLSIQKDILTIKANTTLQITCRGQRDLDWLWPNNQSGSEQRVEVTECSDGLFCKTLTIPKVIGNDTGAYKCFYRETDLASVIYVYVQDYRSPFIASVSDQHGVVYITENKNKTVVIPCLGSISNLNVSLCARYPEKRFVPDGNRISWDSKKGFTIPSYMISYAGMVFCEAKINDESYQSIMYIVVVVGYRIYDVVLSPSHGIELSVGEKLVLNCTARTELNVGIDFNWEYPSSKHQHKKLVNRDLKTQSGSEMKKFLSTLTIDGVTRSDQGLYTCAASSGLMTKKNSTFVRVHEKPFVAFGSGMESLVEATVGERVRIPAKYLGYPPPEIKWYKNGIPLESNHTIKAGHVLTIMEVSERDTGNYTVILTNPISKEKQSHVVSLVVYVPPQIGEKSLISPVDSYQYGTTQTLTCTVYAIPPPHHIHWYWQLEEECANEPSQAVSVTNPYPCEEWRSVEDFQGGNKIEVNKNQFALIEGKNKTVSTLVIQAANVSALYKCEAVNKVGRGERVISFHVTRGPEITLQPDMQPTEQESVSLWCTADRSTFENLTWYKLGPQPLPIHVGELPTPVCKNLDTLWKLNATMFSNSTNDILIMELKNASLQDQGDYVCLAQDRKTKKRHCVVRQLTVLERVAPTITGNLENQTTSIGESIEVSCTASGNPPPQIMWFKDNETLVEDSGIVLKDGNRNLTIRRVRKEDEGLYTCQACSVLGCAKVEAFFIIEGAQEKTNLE

[6] = biological target: T1, human PlGF-2 (human) (UniProt P49763)
T1 sequence: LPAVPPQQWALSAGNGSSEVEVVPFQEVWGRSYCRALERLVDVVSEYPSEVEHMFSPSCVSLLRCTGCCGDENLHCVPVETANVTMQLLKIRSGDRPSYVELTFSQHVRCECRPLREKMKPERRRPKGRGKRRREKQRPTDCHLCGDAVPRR

[7] = biological target: human VEGF-A121 (human)
[8] = biological target: human VEGF-A165 (human)
[9] = biological target: T2, murine PlGF-2 (mouse) (UniProt P49764)
T2 sequence: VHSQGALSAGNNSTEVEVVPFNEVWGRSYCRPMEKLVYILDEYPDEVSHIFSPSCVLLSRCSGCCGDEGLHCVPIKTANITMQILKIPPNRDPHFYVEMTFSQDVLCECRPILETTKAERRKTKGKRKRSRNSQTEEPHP

[10] = biological target: human VEGF-A165 (human); remark: listed apart in the source
[11] = biological target: T1, human PlGF-2 (human); remark: listed apart in the source
[12] = biological target: T2, murine PlGF-2 (mouse); remark: listed apart in the source

Sequence of VEGF Trap (aflibercept) (Fc fusion) (chain): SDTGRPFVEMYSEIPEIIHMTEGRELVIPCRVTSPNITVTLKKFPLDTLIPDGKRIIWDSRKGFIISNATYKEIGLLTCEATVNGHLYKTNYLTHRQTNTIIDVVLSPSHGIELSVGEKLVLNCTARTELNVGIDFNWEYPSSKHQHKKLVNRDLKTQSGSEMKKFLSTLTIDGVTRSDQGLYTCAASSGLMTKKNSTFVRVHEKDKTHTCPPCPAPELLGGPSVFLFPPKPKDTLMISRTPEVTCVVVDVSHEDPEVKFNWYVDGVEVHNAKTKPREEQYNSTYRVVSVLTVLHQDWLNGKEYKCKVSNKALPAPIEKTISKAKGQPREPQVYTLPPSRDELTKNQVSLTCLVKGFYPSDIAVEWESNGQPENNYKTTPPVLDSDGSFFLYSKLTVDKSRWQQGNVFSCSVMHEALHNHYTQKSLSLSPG
Sequence of human VEGFR1-hFc (human) (P17948 27-758): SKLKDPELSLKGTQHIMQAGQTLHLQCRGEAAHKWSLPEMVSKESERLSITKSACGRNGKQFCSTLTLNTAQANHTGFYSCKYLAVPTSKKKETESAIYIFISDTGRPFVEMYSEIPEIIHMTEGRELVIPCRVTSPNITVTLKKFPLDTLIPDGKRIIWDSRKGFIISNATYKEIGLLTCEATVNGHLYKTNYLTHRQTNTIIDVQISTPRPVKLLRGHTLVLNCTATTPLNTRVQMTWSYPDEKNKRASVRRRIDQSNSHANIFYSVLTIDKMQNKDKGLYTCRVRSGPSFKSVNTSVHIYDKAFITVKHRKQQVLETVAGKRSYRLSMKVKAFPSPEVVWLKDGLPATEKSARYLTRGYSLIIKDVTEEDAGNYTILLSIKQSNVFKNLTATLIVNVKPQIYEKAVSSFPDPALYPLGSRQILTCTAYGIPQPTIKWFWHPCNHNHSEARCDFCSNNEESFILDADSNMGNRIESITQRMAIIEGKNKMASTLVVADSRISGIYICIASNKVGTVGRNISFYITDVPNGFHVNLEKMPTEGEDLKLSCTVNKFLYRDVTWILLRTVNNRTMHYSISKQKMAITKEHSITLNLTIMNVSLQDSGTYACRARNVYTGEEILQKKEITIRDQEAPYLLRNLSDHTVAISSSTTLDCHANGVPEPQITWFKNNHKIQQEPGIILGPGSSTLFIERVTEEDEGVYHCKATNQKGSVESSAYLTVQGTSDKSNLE

Substance | EC50 of luciferase activation in HEK293/VEGFR1 cells (dose response, 0.022 pM to 4.0 nM) [1] [pM] | Kd [2] [pM] | Kd [3] [pM] | koff [3] [s⁻¹] | kon [3] [M⁻¹ s⁻¹] | Kd [4] [pM] | koff [4] [s⁻¹] | kon [4] [M⁻¹ s⁻¹] | Kd [5] [pM] | koff [5] [s⁻¹] | kon [5] [M⁻¹ s⁻¹] | IC50 of blocking luciferase activity induced by 40 pM hPlGF-2 in the HEK293/VEGFR1 reporter cell line (blocks hPlGF-2 with VEGFR1) [6] [pM] | IC50 of blocking luciferase activity induced by 20 pM hVEGF-A121 in the HEK293/VEGFR1 reporter cell line (blocks VEGF-A121 with VEGFR1) [7] [pM] | IC50 of blocking luciferase activity induced by 20 pM hVEGF-A165 in the HEK293/VEGFR1 reporter cell line (blocks VEGF-A165 with VEGFR1) [8] [pM] | IC50 of blocking luciferase activity induced by 20 pM mPlGF-2 in the HEK293/VEGFR1 reporter cell line (blocks mPlGF-2 with VEGFR1) [9] [pM] | reduction of HUVEC migration induced by 130 pM VEGF-A165 (modified Boyden chamber; inhibitor 0.013–13 nM), at a 1:1 molar ratio of VEGF Trap and VEGF-A165 [10] [%] | block of HUVEC migration induced by human PlGF-2 (7.1 nM) by a 100-fold excess of VEGF Trap (modified Boyden chamber) [11] [%] | block of HUVEC migration induced by mouse PlGF-2 (3.5 nM) by a 100-fold excess of VEGF Trap (modified Boyden chamber) [12] [%]
human VEGF-A121 (ligand) | 13 | 0.18 | 0.36 | 1.35e-05 | 3.75e+07 | – | – | – | – | – | – | – | – | – | – | – | – | –
human VEGF-B(10-108) (domain or fragment) | – | 17.5 | 1.92 | 6.74e-05 | 3.52e+07 | – | – | – | – | – | – | – | – | – | – | – | – | –
human VEGF-A165 (ligand) | 17 | 0.66 | 0.49 | 2.01e-05 | 4.1e+07 | 9.33 | 0.00028 | 3e+07 | 88.8 | 0.00135 | 1.52e+07 | – | – | – | – | – | – | –
VEGF Trap (aflibercept) (Fc fusion) | – | – | – | – | – | – | – | – | – | – | – | 2890 | 15 | 16 | 104 | 90 | 80 | 80
